In patent US20080125498A1 (published 2008):

Target: T1, protease-activated receptor 1 (PAR1), rat, endogenous in hippocampal neurons (rat, UniProt P26824 46-432)
T1 sequence (looked up): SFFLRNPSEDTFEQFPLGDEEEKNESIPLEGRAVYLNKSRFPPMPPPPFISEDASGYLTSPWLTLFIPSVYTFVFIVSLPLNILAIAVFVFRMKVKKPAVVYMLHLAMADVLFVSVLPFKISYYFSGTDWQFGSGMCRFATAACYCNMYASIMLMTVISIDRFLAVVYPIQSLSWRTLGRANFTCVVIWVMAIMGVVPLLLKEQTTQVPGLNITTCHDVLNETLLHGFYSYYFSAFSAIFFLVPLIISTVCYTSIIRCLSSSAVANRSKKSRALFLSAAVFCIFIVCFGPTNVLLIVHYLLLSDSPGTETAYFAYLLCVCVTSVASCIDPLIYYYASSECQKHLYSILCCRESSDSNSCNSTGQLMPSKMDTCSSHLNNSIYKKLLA
Test: cell-based or functional assay

Binder: SFLLRN
- potentiation of the response to NMDA plus glycine in CA1 pyramidal cells, 30 micromolar SFLLRN: 1.76 fold
